Experimental data taken from the supplement of paper PMC10126150.
± gives the standard deviation of the averaged measurements.

Test system: ATP
Assay: switch fluorescence ratio, 500 uM ATP over buffer (Cy3 cluster intensity, sum of 5 cycles each) (fold (ratio)); higher = stronger signal-on switching upon ATP binding; sequences stand for … in TCGTCGGCAGCGTCAGATGTGTATAAGAGACAGTTTTTTTTTTTTTTTTTTTTTTTTT…TC
Conditions: aptamer strand: ATP DNA aptamer (quencher-CACCTGGGGGAGTATTGCGGAGGAAGG + anchor), 100 nM annealed; ATP concentration: 500 uM
Outline: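 Cy3-labelled switching-strand clusters on a modified Illumina MiSeq flow-cell were annealed to 100 nM quencher-labelled ATP aptamer, imaged in selection buffer, then imaged after 15 min with 500 uM ATP at 22 °C. Five buffer/ATP cycles ran, with NaOH stripping and re-annealing between them. The fluorescence ratio is summed target-cycle over summed buffer-cycle Cy3 intensity per cluster, averaged per switch-domain sequence. Clusters outside 100-1000 RFU were excluded.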
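Note: ATP exposure 15 min at 22 °C before imaging.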

Sequence	switch fluorescence ratio
CGGTTTTTT	1 ± 0.021
CGGGGATACT	1.38 ± 0.24
TCTTTTGCCT	1.01 ± 0.034
ATAGGGGGTG	1.03 ± 0.034
CTCTGGTGGC	1.08 ± 0.054
AGGCACCGGT	1.04 ± 0.0041
TTTCAAGTTT	1.16 ± 0.3
TTGGCGCTGG	0.993 ± 0.026
GGACGTAGTA	1.006 ± 0.0071
ATTCCGGTCT	0.978 ± 0.011
AGATGGGGGA	0.983 ± 0.026
GAGTAAGGGG	0.969 ± 0.025
AAGTGTTAGC	0.995 ± 0.022
ATATAGGGTG	1.09 ± 0.019
AATGGGTCTG	0.978 ± 0.052
ACTATAATCA	1.04 ± 0.026
AAGGAGTCGG	0.987 ± 0.044
GGAGTAAGAG	1.11 ± 0.21
AGTAGGACTC	1.01 ± 0.013
GATTGGGCCA	0.996 ± 0.017
CCGTTCTGGG	0.9786 ± 0.0026
GGGGTGGCGA	1.01 ± 0.045
TCATTCATGG	0.977 ± 0.011
TTGCGGGGT	1.02 ± 0.011
GGGATTGTAA	0.982 ± 0.021
CTTTCCGTTC	1.2 ± 0.092

Sequence	switch fluorescence ratio
GCGAACGGTT	1.03 ± 0.021
TAGACGTTGG	1.02 ± 0.014
AGTAGGGCTT	1.01 ± 0.039
GGAATTAGTG	0.995 ± 0.025
AGGTTTGGAC	1.09 ± 0.17
CAGGTTTTCT	0.9968 ± 0.0018
TGGTTGAAAT	0.975 ± 0.028
TTTCAAAAGG	1.01 ± 0.019
GTGTTTGTTG	0.989 ± 0.029
TTTAGAATCC	1.03 ± 0.019
GGAGGCTGGT	1.018 ± 0.01
CACCTCGGAC	1.139 ± 0.0092
CCGGGGGT	1.036 ± 0.0046
AAGCAAGGGA	1.065 ± 0.01
AATGTCTAGA	0.975 ± 0.023
AAGATTTTTG	1.01 ± 0.041
GGTATGAGTG	0.9737 ± 0.006
TATGGAGAAC	1.01 ± 0.035
CATTTGGGTC	1.013 ± 0.0038
CAGTAATAGG	1.07 ± 0.0075
AAGTAGTGGT	0.979 ± 0.025
AGTTTACGAT	1.037 ± 0.0099
GTTTATGTAC	1.07 ± 0.065
TAATTTGGA	0.9652 ± 0.004
GGGTGCTCGG	1 ± 0.019
GGGGGACTCT	0.986 ± 0.041

Sequence	switch fluorescence ratio
CGATGGTGTC	1.01 ± 0.036
AAACTGGGCG	1.04 ± 0.062
AAATGCGGGG	0.978 ± 0.036
ATTGAGGAGA	0.999 ± 0.033
CGCCGAATCT	0.961 ± 0.042
CGTTTCCCGG	0.992 ± 0.031
TAGGAGGGGG	0.995 ± 0.04
TGTAGATTGT	1.01 ± 0.049
GAGTGGAGGT	0.985 ± 0.01
ATGTTGAGTG	0.995 ± 0.031
CGGCGCTTGG	1.09 ± 0.035
TGCAAGGGTT	1.12 ± 0.088
AGGTTGGAGT	1.02 ± 0.04
AGGTGCGGAA	1.0109 ± 0.00064
GATTATATTT	0.997 ± 0.045
GCCTAGTTGT	0.977 ± 0.028
GGATCTTGGG	1.0038 ± 0.00073
TGTGGAAGGA	0.9862 ± 0.0039
AGGGCTTTCC	1.075 ± 0.007
AGGGGCTTGT	0.979 ± 0.024
GTTGTCCGGG	1 ± 0.027
TTGGGAATA	0.988 ± 0.035
TGGAGTCCAT	1.026 ± 0.0098
ATGGTAGG	0.9749 ± 0.0017
GAGTGTGGGG	0.96 ± 0.03
CCGTTGGGCT	1.01 ± 0.025

Sequence	switch fluorescence ratio
GCGCTACGTG	1.01 ± 0.026
CGGGAGTTAG	1.02 ± 0.021
TTCGGTATGC	0.98 ± 0.047
GGAGGGGTCA	0.9744 ± 0.0097
GTTTAGAATT	1.004 ± 0.01
AAACCCAGCT	0.988 ± 0.02
TTTCCTTGCC	1.19 ± 0.024
ATCAGAATAC	1.74 ± 0.43
AAATAGGTTT	1 ± 0.044
GGGTAATCTT	0.991 ± 0.028
TGAAAGTGTT	0.994 ± 0.012
ATGCTTCGTG	0.975 ± 0.027
GGGCGTAACT	0.991 ± 0.041
CTGTTTGTGA	0.995 ± 0.011
CGGGCTATTC	1.22 ± 0.034
AGCGTATTGG	0.998 ± 0.035
TAAACTTTTG	0.9786 ± 0.0039
TGGGAACGCG	1.003 ± 0.0076
GCATTTTCAG	0.989 ± 0.021
CGGCGAAGAT	1.01 ± 0.025
GGAGTACCGG	1.01 ± 0.049
TTTTCTAGTA	0.983 ± 0.038
CGTGGGATTG	1.012 ± 0.004
GGTAATTTTG	0.996 ± 0.061
CTCAATTCAA	1.02 ± 0.015
GGATAGAGTG	0.971 ± 0.052

Sequence	switch fluorescence ratio
ATAAGTTGGT	0.987 ± 0.046
TTTAATCATC	1.01 ± 0.026
GGAAAAGGGT	0.998 ± 0.04
TGGTTTTCAG	0.997 ± 0.015
TTTGATCTTT	1.01 ± 0.035
CGGCGCTAGG	1.05 ± 0.045
CAAAGAAAGG	0.95 ± 0.021
TTGATGAAGT	1.01 ± 0.031
TAGCGGTTCG	1.01 ± 0.034
CGGCTGGGGG	0.976 ± 0.014
CAGCGTGGGG	1.022 ± 0.0092
AGCACGGGAA	1.03 ± 0.03
GTTCTTCAGA	0.9705 ± 0.0056
TATCATTAGA	1.01 ± 0.014
GGTAGGGAAC	0.975 ± 0.029
GATGCGTTCG	1.01 ± 0.018
TTTTTACAAT	1.01 ± 0.039
TCTCGGGTTT	0.9951 ± 0.0055
TGAGTCAATT	0.99 ± 0.032
GGTAGGGGGA	1.02 ± 0.046
AGAGATATGA	1.0142 ± 0.00072
CGCTGATTAG	1.041 ± 0.0092
ATATATCGTT	0.981 ± 0.024
TTAATCCATG	0.988 ± 0.011
GAAGGGGTTG	1.02 ± 0.065
TCTATTCTCG	1.013 ± 0.0056

Sequence	switch fluorescence ratio
CGGGTGCGGT	0.951 ± 0.045
AGTTGTAGGG	1 ± 0.016
AGGAGGTCGG	0.991 ± 0.01
AGGAGGCTAG	1.02 ± 0.045
CTCGATAAAA	0.975 ± 0.022
GCTGTAGGAG	0.9843 ± 0.0072
CCTTATTGGG	1.05 ± 0.037
TAAGGGTGGT	1.01 ± 0.027
CGGTCTGGTC	0.987 ± 0.018
TGTGGGAGGC	1.04 ± 0.018
CACGGGCCCT	1.02 ± 0.017
GTCCTGGGGC	0.9947 ± 0.0014
AAAATGGGGA	1.02 ± 0.033
AACCCCGGGG	1.02 ± 0.067
TATGCCTTTT	1.008 ± 0.0042
TTGCCATGTG	1 ± 0.034
CAGTTGCGCA	0.996 ± 0.034
TTTACGGATT	1.02 ± 0.048
GAGTTTGTCA	0.9917 ± 0.0087
TATCGGTTCG	0.9992 ± 0.0076
ATATTGATAG	1 ± 0.0064
TTTTATTAGT	0.989 ± 0.044
CATTTAGGGA	1.01 ± 0.029
